Source: PMC11296239

T1: RORα (mouse, UniProt P51448 1-523)
T1 sequence: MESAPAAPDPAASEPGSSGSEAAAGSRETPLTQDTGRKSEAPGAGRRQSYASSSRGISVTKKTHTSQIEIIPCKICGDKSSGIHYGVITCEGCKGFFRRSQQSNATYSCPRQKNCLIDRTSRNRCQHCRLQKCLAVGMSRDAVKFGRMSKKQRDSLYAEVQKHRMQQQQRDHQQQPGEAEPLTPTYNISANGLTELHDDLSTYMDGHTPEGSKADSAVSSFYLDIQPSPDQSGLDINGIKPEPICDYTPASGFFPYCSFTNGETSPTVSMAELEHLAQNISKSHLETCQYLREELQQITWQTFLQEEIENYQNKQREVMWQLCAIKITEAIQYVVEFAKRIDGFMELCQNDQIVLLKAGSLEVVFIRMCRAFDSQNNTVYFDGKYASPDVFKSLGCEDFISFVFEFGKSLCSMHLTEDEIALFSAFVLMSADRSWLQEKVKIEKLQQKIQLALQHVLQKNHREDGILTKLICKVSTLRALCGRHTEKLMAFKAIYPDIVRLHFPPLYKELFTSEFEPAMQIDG

T2: Rev-erbα (mouse, UniProt Q3UV55 1-615)
T2 sequence: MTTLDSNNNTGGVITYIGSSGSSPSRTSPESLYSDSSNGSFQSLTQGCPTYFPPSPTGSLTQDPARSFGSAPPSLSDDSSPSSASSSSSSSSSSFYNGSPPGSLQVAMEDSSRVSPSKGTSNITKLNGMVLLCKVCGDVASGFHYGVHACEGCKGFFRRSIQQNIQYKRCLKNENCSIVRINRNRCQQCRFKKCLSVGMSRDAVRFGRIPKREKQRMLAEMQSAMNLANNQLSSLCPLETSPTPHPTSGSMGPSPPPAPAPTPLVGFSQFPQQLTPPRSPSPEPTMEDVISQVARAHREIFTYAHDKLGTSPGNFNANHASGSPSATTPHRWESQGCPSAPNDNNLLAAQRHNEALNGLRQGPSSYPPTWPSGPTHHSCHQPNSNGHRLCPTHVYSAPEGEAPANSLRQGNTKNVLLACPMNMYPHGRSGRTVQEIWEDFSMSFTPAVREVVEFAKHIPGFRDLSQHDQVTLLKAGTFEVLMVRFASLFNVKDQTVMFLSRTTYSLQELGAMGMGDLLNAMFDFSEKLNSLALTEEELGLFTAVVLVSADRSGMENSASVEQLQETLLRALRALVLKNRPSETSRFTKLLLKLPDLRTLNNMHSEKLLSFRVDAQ


How the values were obtained:
RORα = biological target: T1, RORα; assay: EMSA
Rev-erbα = biological target: T2, Rev-erbα; assay: EMSA

| Binder | binding result (RORα) | binding result (Rev-erbα) |
| --- | --- | --- |
| mut h-RRE1 (dsDNA) DNA 1: TTCCTCAACAGCCGATACATTGTTTC DNA 2: GAAACAATGTATCGGCTGTTGAGGAA | no binding | no binding |
| mut h-RRE2 (dsDNA) DNA 1: TCACCTGCTTGACGGCTTGACAGACCG DNA 2: CGGTCTGTCAAGCCGTCAAGCAGGTGA | no binding | no binding |
